Assay results published in paper PMC11374677 (Nature, 2024).

Target: SARS-CoV-2 non-structural protein 3 (nsp3), TwinStrep-EGFP tagged, wild type (SARS-CoV-2 (Wuhan-Hu-1), UniProt P0DTD1)
Experiment: […]

B1: SARS-CoV-2 non-structural protein 4 (nsp4), wild type (natural protein)
chain: KIVNNWLKQLIKVTLVFLFVAAIFYLITPVHVMSKHTDFSSEIIGYKAIDGGVTRDIASTDTCFANKHADFDTWFSQRGGSYTNDKACPLIAAVITREVGFVVPGLPGTILRTTNGDFLHFLPRVFSAVGNICYTPSKLIEYTDFATSACVLAAECTIFKDASGKPVPYCYDTNVLEGSVAYESLRPDTRYVLMDGSIIQFPNTYLEGSVRVVTTFDSEYCRHGTCERSEAGVCVSTSGRWVLNNDYYRSLPGVFCGVDAVNLLTNMFTPLIQPIGALDISASIVAGGIVAIVVTCLAYYFMRFRRAFGEYSHVVAFNTLLFLMSFTVLCLTPVYSFLPGVYSVIYLYLTFYLTNDVSFLAHIQWMVMFTPLVPFWITIAYIICISTKHFYWFFSNYLKRRVVFNGVSFSTFEEAALCTFLLNKEMYLKLRSDVLLPLTQYNRYLALYNKYKYFSGAMDTTSYREAACCHLAKALNDFSNSGSDVLYQPPQTSITSAVLQ
  stoichiometry N: 1 ratio nsp4:nsp3 (12:12 in the complex)
